Laboratory results published in the RNAGym collection of RNA variant scans (doi:10.7554/elife.80360).

B1: HDV Ribozyme (parent)
chain: GGCCGGCAUGGUCCCAGCCUCCUCGCUGGCGCCGGCUGGGCAACAUUCCGAGGGGACCGUCCCCUCGGUAAUGGCGAAUGGGACCCA

Variants of: B1
Test: self-cleavage, relative activity (ratio to wild type); higher = more cleavage; co-transcriptional

Row | Variant | self-cleavage
1 | GGCCGGCAUGGUCCCAGCCUCCUCGCUGGCGCCGUCUGGGCAACAUUCUGAGGGGACCGUCCCCUCGGUAAUGGCGAAUGGGACCCA [G35U C49U] | 0.554
2 | GGCCGGCAUGGUCCCAGCCUCCUCGCUGGCGCCGUCUGCGCAACAUUCCGAGGGGACCGUCCCCUCGGUAAUGGCGAAUGGGACCCA [G35U G39C] | 0
3 | GGCCGGCAUGGUCCCAGCCUCCUCGCUGGCGCCGCCUGGGCAACAUUCCGAGGGGACCGUCCCCUCAGUAAUGGCGAAUGGGACCCA [G35C G67A] | 0.148
4 | GGCCGGCAUGGUCCCAGCCUCCUCGCUGGCGCCGUCUGGGCCACAUUCCGAGGGGACCGUCCCCUCGGUAAUGGCGAAUGGGACCCA [G35U A42C] | 0.115
5 | GGCCGGCAUGGUCCCAGCCUCCUCGCUGGCGCCGUCUGGGCAACAUUCCGAGGGGACCGUCCCCUCGGUAAUGGCGAAAGGGACCCA [G35U U79A] | 0.166
6 | GGCCGGCAUGGUCCCAGCCUCCUCGCUGGCGCCGUCUGGGCAACAUUCCGAGGGGACCGUGCCCUCGGUAAUGGCGAAUGGGACCCA [G35U C61G] | 0.286
7 | GGCCGGCAUGGUCCCAGCCUCCUCGCUGGCGCCGUCUGGGCAACAUUCCGAGGGGACCGUUCCCUCGGUAAUGGCGAAUGGGACCCA [G35U C61U] | 0.554
8 | GGCCGGCAUGGUCCCAGCCUCCUCGCUGGCGCCGUCUGGGCAACAUUCCGAGGGGACCGUCCCCUCGGUAAUGGCGAAUGGAACCCA [G35U G82A] | 0.0841
9 | GGCCGGCAUGGUCCCAGCCUCCUCGCUGGCGCCGCCUGGGCAACAUUCCCAGGGGACCGUCCCCUCGGUAAUGGCGAAUGGGACCCA [G35C G50C] | 0.0923
10 | GGCCGGCAUGGUCCCAGCCUCCUCGCUGGCGCCGCCUGGGCAACAUUCCGAGGGGACCGUCCCCUCGGUAAUCGCGAAUGGGACCCA [G35C G73C] | 0.269
11 | GGCCGGCAUGGUCCCAGCCUCCUCGCUGGCGCCGUCUGGGCAACAUUCCGAGGGGACCGUCCCCUCGGUAACGGCGAAUGGGACCCA [G35U U72C] | 0.0811
12 | GGCCGGCAUGGUCCCAGCCUCCUCGCUGGCGCCGUCUGGGCAACAUUCCGAGGGGACCGUCCGCUCGGUAAUGGCGAAUGGGACCCA [G35U C63G] | 0.262
13 | GGCCGGCAUGGUCCCAGCCUCCUCGCUGGCGCCGUCUGGGCAACAUUCCGAGGGGACCGUCCUCUCGGUAAUGGCGAAUGGGACCCA [G35U C63U] | 0.513
14 | GGCCGGCAUGGUCCCAGCCUCCUCGCUGGCGCCGCCUGCGCAACAUUCCGAGGGGACCGUCCCCUCGGUAAUGGCGAAUGGGACCCA [G35C G39C] | 0.119
15 | GGCCGGCAUGGUCCCAGCCUCCUCGCUGGCGCCGCCUGGGCAACAUUCCGAGGGGACCGGCCCCUCGGUAAUGGCGAAUGGGACCCA [G35C U60G] | 0.353
16 | GGCCGGCAUGGUCCCAGCCUCCUCGCUGGCGCCGUCUGGGUAACAUUCCGAGGGGACCGUCCCCUCGGUAAUGGCGAAUGGGACCCA [G35U C41U] | 0.63
17 | GGCCGGCAUGGUCCCAGCCUCCUCGCUGGCGCCGCCUGGGCAACAAUCCGAGGGGACCGUCCCCUCGGUAAUGGCGAAUGGGACCCA [G35C U46A] | 0.101
18 | GGCCGGCAUGGUCCCAGCCUCCUCGCUGGCGCCGUCUGGGCAACAUUCCGAGGGGACCGUCCCCUCGGUAAUGGCGAAUGGGACACA [G35U C85A] | 0.373
19 | GGCCGGCAUGGUCCCAGCCUCCUCGCUGGCGCCGUCUGGGCAACAUUCCGAGGGGACCGUCCCCUCGGUAAUGGCGAAUGGGACGCA [G35U C85G] | 0.356
20 | GGCCGGCAUGGUCCCAGCCUCCUCGCUGGCGCCGUCUGGGCAACAUUCCGAGGGGACCGUCCCCUCGGUAAUGUCGAAUGGGACCCA [G35U G74U] | 0.182
21 | GGCCGGCAUGGUCCCAGCCUCCUCGCUGGCGCCGUCUGGGCAACAUUCCGAGGGGACCGUCCCCUCGGUAAUGACGAAUGGGACCCA [G35U G74A] | 0.058
22 | GGCCGGCAUGGUCCCAGCCUCCUCGCUGGCGCCGCCUGGGCAACAUUCCGAGGGGACCGUCCCCUCGGCAAUGGCGAAUGGGACCCA [G35C U69C] | 0.291

Row | Variant | self-cleavage
23 | GGCCGGCAUGGUCCCAGCCUCCUCGCUGGCGCCGUCUGGGCAACAUUCCGACGGGACCGUCCCCUCGGUAAUGGCGAAUGGGACCCA [G35U G52C] | 0.366
24 | GGCCGGCAUGGUCCCAGCCUCCUCGCUGGCGCCGUCUGGGCAACAUUCCGCGGGGACCGUCCCCUCGGUAAUGGCGAAUGGGACCCA [G35U A51C] | 0.332
25 | GGCCGGCAUGGUCCCAGCCUCCUCGCUGGCGCCGCCUGGGCAACAUUCCGAGGGGACCAUCCCCUCGGUAAUGGCGAAUGGGACCCA [G35C G59A] | 0.256
26 | GGCCGGCAUGGUCCCAGCCUCCUCGCUGGCGCCGUCUGGGCAACAGUCCGAGGGGACCGUCCCCUCGGUAAUGGCGAAUGGGACCCA [G35U U46G] | 0.141
27 | GGCCGGCAUGGUCCCAGCCUCCUCGCUGGCGCCGUCUGGGCAACAAUCCGAGGGGACCGUCCCCUCGGUAAUGGCGAAUGGGACCCA [G35U U46A] | 0.116
28 | GGCCGGCAUGGUCCCAGCCUCCUCGCUGGCGCCGUCUGGGCAACAUUCCGAGGGGACCGUCCCCUCGGUGAUGGCGAAUGGGACCCA [G35U A70G] | 0.554
29 | GGCCGGCAUGGUCCCAGCCUCCUCGCUGGCGCCGUCUGGGCAACAUUCCGAGGGGACCGUCCCCUCGGUUAUGGCGAAUGGGACCCA [G35U A70U] | 0.496
30 | GGCCGGCAUGGUCCCAGCCUCCUCGCUGGCGCCGUCUGGGCAACAUUCCGAGGGGACCGUCCCCUCGGAAAUGGCGAAUGGGACCCA [G35U U69A] | 0.212
31 | GGCCGGCAUGGUCCCAGCCUCCUCGCUGGCGCCGCCUGGGCAACAUUCCGAGGGGACCGUCCCCUCGGUAAUGGCUAAUGGGACCCA [G35C G76U] | 0.465
32 | GGCCGGCAUGGUCCCAGCCUCCUCGCUGGCGCCGGAUGGGCAGCAUUCCGAGGGGACCGUCCCCUCGGUAAUGGCGAAUGGGACCCA [C36A A43G] | 0.277
33 | GGCCGGCAUGGUCCCAGCCUCCUCGCUGGCGCCGUCUGGGCAACAUUCCGAGGCGACCGUCCCCUCGGUAAUGGCGAAUGGGACCCA [G35U G54C] | 0.517
34 | GGCCGGCAUGGUCCCAGCCUCCUCGCUGGCGCCGUCUGGGCAACAUUCCGAGGGGACCGUCCCUUCGGUAAUGGCGAAUGGGACCCA [G35U C64U] | 0.449
35 | GGCCGGCAUGGUCCCAGCCUCCUCGCUGGCGCCGCCUGGGCAACAUUCCGAGGGGACCGUCCCCUCGGUAAUGGCGAAUGGGACACA [G35C C85A] | 0.213
36 | GGCCGGCAUGGUCCCAGCCUCCUCGCUGGCGCCGUCUGGGCAACAUUCCGAGGGGACCGUCCCCACGGUAAUGGCGAAUGGGACCCA [G35U U65A] | 0.35
37 | GGCCGGCAUGGUCCCAGCCUCCUCGCUGGCGCCGUCUGGGCAACAUUCCGAGGGGACCGUCCCCGCGGUAAUGGCGAAUGGGACCCA [G35U U65G] | 0.424
38 | GGCCGGCAUGGUCCCAGCCUCCUCGCUGGCGCCGUCUGGGCAAUAUUCCGAGGGGACCGUCCCCUCGGUAAUGGCGAAUGGGACCCA [G35U C44U] | 0.193
39 | GGCCGGCAUGGUCCCAGCCUCCUCGCUGGCGCCGUCUGGUCAACAUUCCGAGGGGACCGUCCCCUCGGUAAUGGCGAAUGGGACCCA [G35U G40U] | 0.12
40 | GGCCGGCAUGGUCCCAGCCUCCUCGCUGGCGCCGUCUGGACAACAUUCCGAGGGGACCGUCCCCUCGGUAAUGGCGAAUGGGACCCA [G35U G40A] | 0.304
41 | GGCCGGCAUGGUCCCAGCCUCCUCGCUGGCGCCGCCUGGGCAACAUUCCGAGGGGACCGUCCCCUCGGUAAUGGCGAAGGGGACCCA [G35C U79G] | 0.214
42 | GGCCGGCAUGGUCCCAGCCUCCUCGCUGGCGCCGCCUGGGCAACAUUCCGAGGCGACCGUCCCCUCGGUAAUGGCGAAUGGGACCCA [G35C G54C] | 0.17
43 | GGCCGGCAUGGUCCCAGCCUCCUCGCUGGCGCCGUCUGGGCAACAUUCCGAGGGGACCGUCCCCUCGGUAAUGGCGAAUGGGCCCCA [G35U A83C] | 0.181
44 | GGCCGGCAUGGUCCCAGCCUCCUCGCUGGCGCCGUCUGGGCAACAUUCCGAGGGGACCGUCCCCUCGGUAAUGGCGAAUGGGGCCCA [G35U A83G] | 0.241

Row | Variant | self-cleavage
45 | GGCCGGCAUGGUCCCAGCCUCCUCGCUGGCGCCGCCUGGUCAACAUUCCGAGGGGACCGUCCCCUCGGUAAUGGCGAAUGGGACCCA [G35C G40U] | 0.145
46 | GGCCGGCAUGGUCCCAGCCUCCUCGCUGGCGCCGUCUGGGCAACAUUCCGAGGGGACCGUCCCCUCGGUAAUGGCGAAUGGGAACCA [G35U C84A] | 0.308
47 | GGCCGGCAUGGUCCCAGCCUCCUCGCUGGCGCCGUCUGGGCAACAUUCCGAGGGCACCGUCCCCUCGGUAAUGGCGAAUGGGACCCA [G35U G55C] | 0.409
48 | GGCCGGCAUGGUCCCAGCCUCCUCGCUGGCGCCGUCUGGGCAACAUUCCGAGGGAACCGUCCCCUCGGUAAUGGCGAAUGGGACCCA [G35U G55A] | 0.477
49 | GGCCGGCAUGGUCCCAGCCUCCUCGCUGGCGCCGUCUGGGCAACAUUCCGAGGGGACCGUCCCCUCGGUAAUGGCGAAUGGGACCCG [G35U A87G] | 0.257
50 | GGCCGGCAUGGUCCCAGCCUCCUCGCUGGCGCCGUCUGGGCAACAUGCCGAGGGGACCGUCCCCUCGGUAAUGGCGAAUGGGACCCA [G35U U47G] | 0.295
51 | GGCCGGCAUGGUCCCAGCCUCCUCGCUGGCGCCGUCUGGGCAACAUUCCGAGGGGACCGUCCCCUAGGUAAUGGCGAAUGGGACCCA [G35U C66A] | 0.332
52 | GGCCGGCAUGGUCCCAGCCUCCUCGCUGGCGCCGUCUGGGCAACAUUCCGAGGGGACCGUCCCCUGGGUAAUGGCGAAUGGGACCCA [G35U C66G] | 0.458
53 | GGCCGGCAUGGUCCCAGCCUCCUCGCUGGCGCCGCCUGGGCAACAUUCCGAGGGGACCGUCCCCUCGGUAAUGUCGAAUGGGACCCA [G35C G74U] | 0.133
54 | GGCCGGCAUGGUCCCAGCCUCCUCGCUGGCGCCGCCUGGGCAACAUACCGAGGGGACCGUCCCCUCGGUAAUGGCGAAUGGGACCCA [G35C U47A] | 0.0594
55 | GGCCGGCAUGGUCCCAGCCUCCUCGCUGGCGCCGCCUGGGCAACAUUCCGAGGGGACCGUCCCCUCGGUAAUGGCGAAUGGGACCGA [G35C C86G] | 0.0489
56 | GGCCGGCAUGGUCCCAGCCUCCUCGCUGGCGCCGUCUGGGCAACUUUCCGAGGGGACCGUCCCCUCGGUAAUGGCGAAUGGGACCCA [G35U A45U] | 0.289
57 | GGCCGGCAUGGUCCCAGCCUCCUCGCUGGCGCCGUCUGGGCAACCUUCCGAGGGGACCGUCCCCUCGGUAAUGGCGAAUGGGACCCA [G35U A45C] | 0.0475
58 | GGCCGGCAUGGUCCCAGCCUCCUCGCUGGCGCCGUCUGGGCAACAUUCCGAGCGGACCGUCCCCUCGGUAAUGGCGAAUGGGACCCA [G35U G53C] | 0.478
59 | GGCCGGCAUGGUCCCAGCCUCCUCGCUGGCGCCGUCUGGGCAACAUUCCGAGAGGACCGUCCCCUCGGUAAUGGCGAAUGGGACCCA [G35U G53A] | 0.42
60 | GGCCGGCAUGGUCCCAGCCUCCUCGCUGGCGCCGUCUGGGCAACAUUCCGAGGGGACCGUCCCCUCGCUAAUGGCGAAUGGGACCCA [G35U G68C] | 0.4
61 | GGCCGGCAUGGUCCCAGCCUCCUCGCUGGCGCCGCCUGGGCAACAUUCCGAGGGGACCGUCCCCUCGUUAAUGGCGAAUGGGACCCA [G35C G68U] | 0.305
62 | GGCCGGCAUGGUCCCAGCCUCCUCGCUGGCGCCGGAUGGGCAACAUUCCGCGGGGACCGUCCCCUCGGUAAUGGCGAAUGGGACCCA [C36A A51C] | 0.277
63 | GGCCGGCAUGGUCCCAGCCUCCUCGCUGGCGCCGUCUGGGCAACAUUCCGAGGGGACCGUCCCCUCGGUAAUGGCGGAUGGGACCCA [G35U A77G] | 0.305
64 | GGCCGGCAUGGUCCCAGCCUCCUCGCUGGCGCCGUCUGGGCAACAUUCCGAGGGGACCGUCCCCUCGGUAAUAGCGAAUGGGACCCA [G35U G73A] | 0.0911
